Assay results reported in US20040038887A1 (Harvard, published 2004).
No end group written: not given here.

How the values were obtained:
[1] = target: T1, Recombinant water-soluble HLA-DR-2 molecules (DRB1*1501) (human); assay: ELISA, biotinylated MBP 86-100 (0.13 uM) on soluble HLA-DR-2, no competitor; background 0.1
T1 chain 1: not shown
T1 chain 2: not shown

[2] = target: T2, Recombinant water-soluble HLA-DR-2 molecules (DRB1*1501) (human, UniProt P01903 26-216; P01911 30-227, limits assumed); assay: competition ELISA, unlabeled inhibitor against biotinylated MBP 86-100 on soluble HLA-DR-2 (LB3.1 capture, streptavidin-AP)
T2 construct: Expressed in Drosophila S2 cells and purified on a Protein A-LB3.1 column 'as described (Kalandadze et al. 1996)'; also called HLA DR-2 (DRB1*1501); purified HLA-DR-2

## SGSGNPVVHFFKNIVTPRT (not fully specified) [Biotinylated MBP 86-100 (SEQ ID NO: 1)]
[1]
  signal at 410 nm without competitor (absorbance at 410 nm): 0.8 to 0.9

B1: MBP 85-99 (SEQ ID NO: 2), unlabeled (peptide)
peptide: ENPVVHFFKNIVTPR
notes: also called unlabeled MBP 85-99 peptide; synthetic unlabeled peptide control MBP 85-99
[2]
  binding result: binds
